Measurements: patent CN117651715A (UNIV OXFORD INNOVATION LTD, dated 2024)
Changes are numbered by the printed parent chain. Values belong to the binder of their own block, whether it stands above or below them.

How the values were obtained:
[1] = target: 人类CD1a池B蛋白 (human CD1a pool B protein, recombinant) (human) (UniProt P06126); assay: SPR (Biacore T200), antibody captured, human CD1a titrated, 1:1 model
[2] = target: T1, 人类CD1a池B蛋白 (human CD1a pool B protein, recombinant) (human, UniProt P06126 17-300, limits assumed); assay: as above
T1 construct: Recombinant protein used in ELISA, Biacore and on beads; also called 人类CD1a蛋白; CD1a包被珠 (on beads)

[3] = target: T1, 人类CD1a池B蛋白 (human CD1a pool B protein, …); assay: SPR (Biacore T200), antibody captured on anti-species F(ab')2, human CD1a titrated 0-50 nM, 1:1 model
[4] = target: 人类CD1a池B蛋白 (human CD1a pool B protein, recombinant) (human) (UniProt P06126); assay: SPR (Biacore T200), antibody captured, human CD1a titrated, heterogeneous ligand model

T1 sequence (P06126 17-300 limits assumed): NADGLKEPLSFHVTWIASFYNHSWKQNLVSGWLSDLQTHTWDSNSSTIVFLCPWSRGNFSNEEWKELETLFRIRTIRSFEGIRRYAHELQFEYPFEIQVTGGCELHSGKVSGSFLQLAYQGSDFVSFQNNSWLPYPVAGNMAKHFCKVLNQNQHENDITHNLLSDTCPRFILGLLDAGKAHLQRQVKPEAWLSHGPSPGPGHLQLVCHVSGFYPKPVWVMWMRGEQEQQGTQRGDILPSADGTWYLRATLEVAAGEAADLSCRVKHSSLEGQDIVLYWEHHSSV

B1: 116(VR12117) (antibody, from another filing, V domains shown)
VH: QSVEESGGRLVTPGTPLTLTCTVSGFSLSNYAMSWVRQAPGKGLEWIGIIYTTGFTYYASWVKGRFTISKTSTTVDLKITSPTTEDTATYFCARGLATYVSPPTRLDLWGQGTLVTVSS
VL: AQVLTQTPSPVSAAVGGTVTINCQASQSIYNSKNLAWYQQKPGQPPKLLIYSASTLASGVPSRFKGSGSGTQFTLTISDLECDDAATYYCQGEFSCSSVDCATFGGGTEVVVK
- Kd [1]: 2.89 nM
- koff [1]: 0.0014 s⁻¹
- kon [1]: 483000 M⁻¹ s⁻¹

B2: 110(VR12112) (antibody, from another filing, V domains shown)
VH: QSVEESGGRLVTPGTPLTLTCTVSGFSLSSYAMIWVRQAPGKGLEWIGIINSSDNTHYATWAKGRFTISKTSTTVDLKITSPTTEDTATYFCARDPYDYGYGWYFDLWGPGTLVTVSS
VL: AQVLTQTPSPVSAAVGGTVTINCQASQSVFNNKNLAWYQQKPGQPPKLLIYKASTLASGVSSRFKGSGSGTQFALTISGVQCDDAATYYCQGEFSCSSTDCVTFGGGTEVVVK
- Kd [1]: 1.97 nM
- koff [1]: 0.000874 s⁻¹
- kon [1]: 443000 M⁻¹ s⁻¹

Other lines, results leading:

- Kd [1]: 0.0312 nM
- koff [1]: 1.47e-08 s⁻¹
- kon [1]: 321000 M⁻¹ s⁻¹
B3: 111(VR12113) (antibody, from another filing, V domains shown)
VH: QSVEESGGRLVTPGTPLTLTCTASGFSLSTYAMSWVRQAPGKGLEWIGIISSSGSTYYASWAKGRFTISKTSTTVDLKITSPTTEDTATYFCARETWYWLDLWGQGTLVTVSS
VL: AVEMTQTPASVSAAVGGTVTINCQASEDIYSNLAWYQQKPGQPPKLLIYGASTLASGVPSRFKGSGSGTEYTLTISGVQCDDAATYYCQCAYDSSSYGTPFGGGTEVVVK

- Kd [2]: 0.24 nM
- koff [2]: 0.000113 s⁻¹
- kon [3]: 469000 M⁻¹ s⁻¹
B4: 77A(VR11851) (antibody, V domains shown)
VH: QSVEESGGRLVTPGTPLTLTCTVSGFSLSSYAMSWVRQAPGKGLEWIGIISSSGTTYYASWAKGRFTISKTSTTVDLKITSPTTEDTATYFCARVDYYSSGWGGLWGPGTLVTVSS
VL: B3 VL with V11M, N22K, A91T, S94T, T99N, P100T, V107M, K110E

- Kd [4]: 0.392 nM
- ka 2 [4]: 514000 M⁻¹ s⁻¹
- kd 2 [4]: 0.00658 s⁻¹
- koff [4]: 0.000729 s⁻¹
- kon [4]: 1.86e+06 M⁻¹ s⁻¹
B5: 16(VR11834) (antibody, from another filing, V domains shown)
VH: EVQLVESGGGLVKPGGSLKLSCAASGFTFSNYAMSWVRQTPEKRLEWVAAINSNGGSAYYPDTVKDRFTISRDNAKNTLYLQMSSLRSEDTALYYCARRFYYDYGWFAYWGQGTLVTVSS
VL: DIVLTQSPASLSASVGETVTITCRASENIDSYLAWYQQKQGKSPQLLVYAATLLADGVPSRFSGSGSGTQYSLKINSLQSEDVARYYCQHYYSSPWTFGGGTKLEIK
